# Article PMC3702404 (Nature structural & molecular biology, 2013)
# Where “and” joins values, the source holds several entries; their conditions need not be identical. Identical values can stand only once. Like-named read-outs stand apart in the source and are kept apart here.
# B1: PpsR (full-length) (natural protein, Rhodobacter sphaeroides, UniProt Q3J179 1-464, looked up)
# chain: MLAGGSLPSLAPDLVRDLIATAADISLLVSQEGVVREVMANPHHPSFGQLSEWEGRPLEEVLTAESVAKFRLRSEGLEPGRGSVAVELNHIDPRSFEFPIRYILHRLPADRSILMLGRDLRPIAEVQQQLVAAQLAMERDYETQREMETRYRVVLDVSRDPMVLVSMSTGRIVDLNSAAGLLLGGVRQDLLGAAIAQEFEGRRRGEFMETMTNLAATESAAPVEVLARRSQKRLLVVPRVFRAAGERLLLCQIDPADATQPVGDELSENLARLYHEGVDGIVFSDADGTIRGANEAFLNMTDSSSLAAIRGRSIADFLARGSVDLRVLIDSVRRTGQLRLYATRLTTDFAGQIAAEISATWLDDRERPLLVLVVRDTSRADTMRRPVPATGVIDEPARNVMELVGNSTLKDIVAETTDVVEKMCIETALELTRNNRVAAAEMLSLSRQSLYVKLRKFGLLNKDE
# What was measured:
# [1] = target: the molecule itself; test: crystal structure
# [2] = target: the molecule itself; test: MST
# [3] = target: B1; test: HDX-MS
# [4] = target: B1; test: native gel or EMSA
# [5] = target: B1; test: native gel or EMSA; remark: listed apart in the source
# [6] = target: B1; test: MST
binder,measurement,setting,value
"PpsR ΔHTH (domain or fragment, Rhodobacter sphaeroides) LAGGSLPSLAPDLVRDLIATAADISLLVSQEGVVREVMANPHHPSFGQLSEWEGRPLEEVLTAESVAKFRLRSEGLEPGRGSVAVELNHIDPRSFEFPIRYILHRLPADRSILMLGRDLRPIAEVQQQLVAAQLAMERDYETQREMETRYRVVLDVSRDPMVLVSMSTGRIVDLNSAAGLLLGGVRQDLLGAAIAQEFEGRRRGEFMETMTNLAATESAAPVEVLARRSQKRLLVVPRVFRAAGERLLLCQIDPADATQPVGDELSENLARLYHEGVDGIVFSDADGTIRGANEAFLNMTDSSSLAAIRGRSIADFLARGSVDLRVLIDSVRRTGQLRLYATRLTTDFAGQIAAEISATWLDDRERPLLVLVVRDTSR",stoichiometry N,[1],4 and 8
B1,Kd,[2],900 nM
"AppA Δ399 C20S (domain or fragment, Rhodobacter sphaeroides) HDLEADVTMTGSDLVSCSYRSLAAPDLTLRDLLDIVETSQAHNARAQLTGALFYSQGVFFQWLEGRPAAVAEVMTHIQRDRRHSNVEILAEEPIAKRRFAGWHMQLSCSEADMRSLGLAESRQIVTVGRSLVADNTNIFSFDRIAAVRRFLSDVCAARTLAPDTPVEADTFALYALTEAQAGRSGRAKAVARLSDLLSTDPLGRLTEVEELLRAHAPTAADFARLFEACAERLTRALAEDRISRMQVTLAYSALQMALRRIHHLPDPQKSVGAVLVAGVPGHKPILEAALAAEMLRAVGWSTSVVHPESVAALAARLKTSRTSTLVVAPSLLEGTEQEADTLRFVSALRARTDLPGLSILVGGRLAQLPPSKLKDSGADAGFAHLALLPAALARVA",Kd,[3],~1500 nM
same,EC50,[4],1400 nM
same,EC50,[5],2300 nM
same,Kd,[6],1300 nM
